Laboratory results published in IntAct's records for PubMed 15475008.

B1: Calcium and integrin-binding protein 1 (Homo sapiens), Q99828-1 (parent)
chain: MGGSGSRLSKELLAEYQDLTFLTKQEILLAHRRFCELLPQEQRSVESSLRAQVPFEQILSLPELKANPFKERICRVFSTSPAKDSLSFEDFLDLLSVFSDTATPDIKSHYAFRIFDFDDDGTLNREDLSRLVNCLTGEGEDTRLSASEMKQLIDNILEESDIDRDGTINLSEFQHVISRSPDFASSFKIVL

Legend:
Settings in all cases: with psn2_human PSEN2, P49810
psn2_human PSEN2, P49810 [1] = variants of: B1
psn2_human PSEN2, P49810 [2] = variants of: B1; remark: listed apart in the source
psn2_human PSEN2, P49810 [3] = variants of: B1; remark: listed apart in the source

Row | effect of a mutation on the interaction (psn2_human PSEN2, P49810 [1]) | effect of a mutation on the interaction (psn2_human PSEN2, P49810 [2]) | effect of a mutation on the interaction (psn2_human PSEN2, P49810 [3]) | Variant
1 | disrupting interaction strength | decreasing interaction |  | D127N;E172Q
2 | disrupting interaction strength | decreasing interaction |  | D127N
3 | disrupting interaction strength | decreasing interaction | decreasing interaction strength | E172Q
